Laboratory results taken from patent publication US20260139057A1 (University of California, published 2026).
Where a chain is given by its changes, count along the chain named. Each block holds one molecule with its values, some of them ahead of it.

Key:
[1] = biological target: integrin αvβ6 ectodomain (immobilized) (human, UniProt P06756 31-992; P18564 22-709)
[2] = biological target: T1, recombinant human integrin αvβ8 ectodomain (human, UniProt P06756 31-992; P26012 43-681); test: cell-based or functional assay
T1 sequence (P06756 31-992 limits assumed, chain 1 of 2): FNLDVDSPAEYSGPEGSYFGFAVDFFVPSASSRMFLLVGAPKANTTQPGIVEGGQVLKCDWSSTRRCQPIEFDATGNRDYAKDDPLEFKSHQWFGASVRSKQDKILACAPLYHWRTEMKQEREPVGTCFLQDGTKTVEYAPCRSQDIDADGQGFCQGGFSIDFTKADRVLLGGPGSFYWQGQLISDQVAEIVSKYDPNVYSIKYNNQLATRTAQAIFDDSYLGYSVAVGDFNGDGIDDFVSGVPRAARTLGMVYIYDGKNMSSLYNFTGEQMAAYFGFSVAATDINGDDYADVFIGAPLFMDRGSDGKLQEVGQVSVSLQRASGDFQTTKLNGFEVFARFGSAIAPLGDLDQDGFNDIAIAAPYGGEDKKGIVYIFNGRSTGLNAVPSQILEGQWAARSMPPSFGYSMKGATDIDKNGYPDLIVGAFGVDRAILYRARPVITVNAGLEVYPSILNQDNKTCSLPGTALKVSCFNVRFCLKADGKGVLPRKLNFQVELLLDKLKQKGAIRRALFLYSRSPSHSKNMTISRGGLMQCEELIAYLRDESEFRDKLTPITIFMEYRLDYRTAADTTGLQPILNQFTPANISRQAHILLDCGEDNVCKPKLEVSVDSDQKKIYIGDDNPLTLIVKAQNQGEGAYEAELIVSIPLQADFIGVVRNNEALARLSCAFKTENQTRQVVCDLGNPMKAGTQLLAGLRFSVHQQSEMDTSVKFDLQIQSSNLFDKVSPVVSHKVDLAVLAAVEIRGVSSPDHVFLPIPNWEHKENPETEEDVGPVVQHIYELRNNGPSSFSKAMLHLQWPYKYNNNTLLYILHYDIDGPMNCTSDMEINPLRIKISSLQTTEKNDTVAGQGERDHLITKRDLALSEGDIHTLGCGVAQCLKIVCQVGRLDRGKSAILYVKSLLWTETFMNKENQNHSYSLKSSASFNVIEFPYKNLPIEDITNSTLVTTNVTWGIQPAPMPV
T1 sequence (P26012 43-681 limits assumed, chain 2 of 2): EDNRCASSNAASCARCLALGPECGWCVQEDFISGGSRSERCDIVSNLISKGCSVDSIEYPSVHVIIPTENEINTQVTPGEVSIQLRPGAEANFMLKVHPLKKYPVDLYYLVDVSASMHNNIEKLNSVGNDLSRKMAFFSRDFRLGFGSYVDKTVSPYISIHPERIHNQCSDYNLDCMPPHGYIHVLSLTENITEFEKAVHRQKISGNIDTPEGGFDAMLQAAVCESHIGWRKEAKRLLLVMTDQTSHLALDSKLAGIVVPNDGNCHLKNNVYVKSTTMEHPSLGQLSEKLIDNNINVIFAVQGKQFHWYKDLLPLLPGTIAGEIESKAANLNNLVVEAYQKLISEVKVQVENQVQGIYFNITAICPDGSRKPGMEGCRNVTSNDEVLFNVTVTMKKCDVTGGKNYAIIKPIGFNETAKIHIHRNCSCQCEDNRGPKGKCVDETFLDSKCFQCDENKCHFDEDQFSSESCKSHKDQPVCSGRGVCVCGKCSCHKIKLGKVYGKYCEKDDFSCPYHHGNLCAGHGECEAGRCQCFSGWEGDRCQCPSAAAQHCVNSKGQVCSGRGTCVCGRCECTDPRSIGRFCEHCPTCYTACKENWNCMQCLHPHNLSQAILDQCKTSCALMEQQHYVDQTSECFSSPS

[3] = biological target: T1, recombinant human integrin αvβ8 …; test: cell-based or functional assay; remark: listed apart in the source
[4] = biological target: T1, recombinant human integrin αvβ8 …; test: cell-based or functional assay; remark: listed apart in the source
[5] = biological target: T1, recombinant human integrin αvβ8 …; test: cell-based or functional assay; remark: listed apart in the source
[6] = biological target: T1, recombinant human integrin αvβ8 …; test: yeast-displayed scFv titrated with αvβ8 ectodomain, flow cytometry, hyperbolic fit
Procedure: After induction and screening of the pooled transformants for scFV expression using anti-V5 (clone SV5), the avb8 ectodomain was incubated with the yeast pool, washed and scFV which bound to αvβ8 were detected using anti-human αv (clone 8β8). After multiple rounds of selection by sorting yeast stained under conditions of increasing stringency (Low Ag concentration, short Kon and long Koff), individual clones were isolated, sequenced and tested for binding affinity. Shown are the sequences of VH and VL pairs enriched in the library. The binding affinities of representative yeast clones was determined using a least-squares fit model based on the hyperbolic equation y=m1+m2*m0/(m3+m0), where y=MFI at different αvβ8 concentrations; m0=αvβ8 concentration; m1=MFI with no αvβ8; m2=MFI at saturation; and m3=KD. […]
We then created a scFV yeast display library (Library 3) with degenerate positions coding for novel amino acids (i.e. not in germline human or mouse Ig sequence databases), back mutations to mouse from clone H1.1, as well as final humanization of Fr4 VH and VL based on the human germline (SEQ ID NO: 29, 30 and 32). […] After induction and screening of the pooled transformants for scFV expression using anti-V5 (clone SV5), the αvβ8 ectodomain was incubated with the yeast pool, washed and scFV which bound to αvβ8 were detected using anti-human αv (clone 8β8). […]

[7] = biological target: T1, recombinant human integrin αvβ8 …; test: MFI against concentration, fit y = m1 + m2*M0/(m3+M0), m3 = KD; paragraph 50 and paragraph 227 give these KD values for the yeast scFv with soluble αvβ8, the legend of FIG. 17 speaks of IgG4 on CHO αvβ8 cells
[8] = biological target: T2, human integrin αvβ8 on transfected cells (CHO cells stably transfected; HEK 293 cells stably expressing αvβ8) (human, UniProt P06756 31-1048; P26012 43-769); test: flow cytometry on CHO cells expressing human αvβ8 fixed in 2% buffered formalin for 15 min, antibody titrated, hyperbolic least-squares fit (m3 = KD); curves on D00025 [Cont.]
T2 construct: whole, on cells; also called CHO αvβ8 cells; αvβ8 expressing CHO cells
T2 sequence (P06756 31-1048, chain 1 of 2): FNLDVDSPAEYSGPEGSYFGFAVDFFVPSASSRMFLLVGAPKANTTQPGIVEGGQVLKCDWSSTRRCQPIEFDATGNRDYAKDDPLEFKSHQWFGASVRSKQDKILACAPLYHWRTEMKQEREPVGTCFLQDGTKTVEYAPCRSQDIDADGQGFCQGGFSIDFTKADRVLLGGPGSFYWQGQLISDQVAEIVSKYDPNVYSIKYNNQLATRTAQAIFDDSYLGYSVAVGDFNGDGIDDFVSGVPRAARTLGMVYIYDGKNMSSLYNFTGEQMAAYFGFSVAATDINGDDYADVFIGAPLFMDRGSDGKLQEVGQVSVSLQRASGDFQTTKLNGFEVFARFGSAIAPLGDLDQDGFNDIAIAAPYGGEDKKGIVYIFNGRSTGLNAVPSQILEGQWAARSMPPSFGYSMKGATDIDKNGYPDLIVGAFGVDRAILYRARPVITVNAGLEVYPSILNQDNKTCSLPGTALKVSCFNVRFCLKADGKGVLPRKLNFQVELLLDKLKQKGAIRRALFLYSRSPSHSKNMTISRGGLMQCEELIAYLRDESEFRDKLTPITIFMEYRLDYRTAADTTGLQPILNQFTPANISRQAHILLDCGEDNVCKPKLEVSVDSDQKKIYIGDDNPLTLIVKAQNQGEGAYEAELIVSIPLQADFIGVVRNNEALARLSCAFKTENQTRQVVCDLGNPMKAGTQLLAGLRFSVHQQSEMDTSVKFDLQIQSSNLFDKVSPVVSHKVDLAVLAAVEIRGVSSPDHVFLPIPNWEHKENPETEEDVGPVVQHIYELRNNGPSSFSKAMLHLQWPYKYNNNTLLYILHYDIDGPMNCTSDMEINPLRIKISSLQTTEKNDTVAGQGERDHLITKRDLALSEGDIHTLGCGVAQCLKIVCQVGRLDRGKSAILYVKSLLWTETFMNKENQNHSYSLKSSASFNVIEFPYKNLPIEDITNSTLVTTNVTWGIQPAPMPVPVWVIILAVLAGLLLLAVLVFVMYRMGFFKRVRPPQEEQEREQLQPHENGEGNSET
T2 sequence (P26012 43-769, chain 2 of 2): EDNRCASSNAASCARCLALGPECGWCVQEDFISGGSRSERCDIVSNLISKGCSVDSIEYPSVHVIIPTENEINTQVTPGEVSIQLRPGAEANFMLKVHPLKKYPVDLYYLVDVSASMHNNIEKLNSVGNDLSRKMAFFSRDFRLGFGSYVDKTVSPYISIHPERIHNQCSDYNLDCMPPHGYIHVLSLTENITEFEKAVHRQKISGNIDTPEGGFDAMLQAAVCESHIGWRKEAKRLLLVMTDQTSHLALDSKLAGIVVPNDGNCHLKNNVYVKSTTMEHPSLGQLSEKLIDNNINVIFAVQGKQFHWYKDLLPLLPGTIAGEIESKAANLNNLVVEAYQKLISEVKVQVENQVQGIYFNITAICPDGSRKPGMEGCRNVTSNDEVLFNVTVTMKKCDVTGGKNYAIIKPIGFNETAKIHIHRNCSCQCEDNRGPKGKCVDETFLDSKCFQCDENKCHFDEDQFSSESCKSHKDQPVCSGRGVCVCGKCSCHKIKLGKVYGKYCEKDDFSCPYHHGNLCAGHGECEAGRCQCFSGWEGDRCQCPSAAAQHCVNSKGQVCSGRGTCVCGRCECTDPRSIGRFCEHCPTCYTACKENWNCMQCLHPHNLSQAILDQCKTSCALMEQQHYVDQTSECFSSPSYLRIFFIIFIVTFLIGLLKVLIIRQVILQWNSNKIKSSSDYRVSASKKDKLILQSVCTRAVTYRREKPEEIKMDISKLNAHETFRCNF
Procedure: (§1) FIG. 17: Characterization of cell surface binding of humanized affinity optimized anti-αvβ8 antibodies. The cell surface binding affinities of H4C8, H4G9, H4C10, H4G8 compared to HuC6D4F12 expressed as IgG4 (S228P to prevent arm exchange, R409K and L445P to reduce aggregation and to promote stability). […] Cell surface affinity was determined using the least-squares fit model based on the hyperbolic equation y=m1+m2*m0/(m3+m0), where y=MFI at different avb8 concentrations; m0=αvβ8 concentration; m1=MFI with no αvβ8; m2=MFI at saturation; and m3=KD.
(§2) FIG. 18: Binding characteristics of H4C8 of formalin fixed αvβ8 compared to HuC6D4F12 or ADWA11 2.4 (from Pat no. US2020/0079855 A1). CHO αvβ8 expressing cells were fixed in 2% buffered formalin in PBS for 15 min at RT and then stained at the indicated concentrations as described in FIG. 17. The binding affinities to unfixed or formalin fixed cells is shown. Cell surface affinity was determined using the least-squares fit model based on the hyperbolic equation y=m1+m2*m0/(m3+m0), where y=MFI at different αvβ8 concentrations; m0=αvβ8 concentration; m1=MFI with no αvβ8; m2=MFI at saturation; and m3=KD.

[9] = biological target: T1, recombinant human integrin αvβ8 …; test: cell-based or functional assay; remark: listed apart in the source
[10] = biological target: T2, human integrin αvβ8 on transfected …; test: flow cytometry on unfixed CHO cells expressing human αvβ8, antibody titrated, hyperbolic least-squares fit (m3 = KD); curves on D00025 [Cont.]
Procedure: as §1, §2

integrin αvβ6 ectodomain (immobilized), sequence (P06756 31-992, chain 1 of 2): as the sequence (P06756 31-992 limits assumed, chain 1 of 2) above
integrin αvβ6 ectodomain (immobilized), sequence (P18564 22-709, chain 2 of 2): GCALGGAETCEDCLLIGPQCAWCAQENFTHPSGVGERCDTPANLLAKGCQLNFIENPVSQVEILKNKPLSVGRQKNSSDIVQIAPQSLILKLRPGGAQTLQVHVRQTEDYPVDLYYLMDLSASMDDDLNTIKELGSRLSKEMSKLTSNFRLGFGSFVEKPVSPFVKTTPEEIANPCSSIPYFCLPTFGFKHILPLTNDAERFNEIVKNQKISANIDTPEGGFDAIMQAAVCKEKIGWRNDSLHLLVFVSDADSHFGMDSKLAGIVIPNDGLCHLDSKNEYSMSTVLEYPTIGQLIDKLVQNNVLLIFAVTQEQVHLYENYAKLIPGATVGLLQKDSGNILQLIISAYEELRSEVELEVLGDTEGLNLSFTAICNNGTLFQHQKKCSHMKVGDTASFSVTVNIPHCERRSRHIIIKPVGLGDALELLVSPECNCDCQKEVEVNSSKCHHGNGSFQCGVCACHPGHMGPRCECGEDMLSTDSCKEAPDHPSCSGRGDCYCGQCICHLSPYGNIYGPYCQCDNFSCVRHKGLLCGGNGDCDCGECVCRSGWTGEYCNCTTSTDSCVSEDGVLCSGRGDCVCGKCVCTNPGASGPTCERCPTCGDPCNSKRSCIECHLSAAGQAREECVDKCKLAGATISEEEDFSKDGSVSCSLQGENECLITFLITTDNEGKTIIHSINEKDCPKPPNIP

ED50 of the inhibition of αvβ6-mediated TGF-β activation (immobilized human αvβ6, TMLC GARP/L-TGF-β reporter cells) [1]: 0.22 µg/mL
Molecule: 3G9 (anti-β6), mouse IgG2a (antibody)

IC50 (read off the curve) [2]: ~0.3 µg/mL
EC50 of inhibition of αvβ8-mediated TGF-β activation [3]: 200 nM
IC50 of the inhibition of TGF-β activation (TMLC GARP/TGF-β1 reporter cells on αvβ8-coated wells) [4]: 0.0922 µg/mL
ED50 of the inhibition of αvβ8-mediated TGF-β activation (immobilized αvβ8, TMLC GARP/L-TGF-β reporter cells) [5]: 0.02 µg/mL
B1: HuF12 IgG2a (antibody)
heavy: QIQLVQSGAEVKKPGASVKISCKASGYTFTKYSMHWVRQAPGQGLEWVARINTETGEPTFADDFRGRFTVTLDTSTSTAYLEIRSLRSDDTAVYFCAIFYYGRDTWGQGTTLTVSSASTKGPSVFPLAPSSKSTSGGTAALGCLVKDYFPEPVTVSWNSGALTSGVHTFPAVLQSSGLYSLSSVVTVPSSSLGTQTYICNVNHKPSNTKVDKKIVPRDCGCKPCICTVPEVSSVFIFPPKPKDVLTITLTPKVTCVVVDISKDDPEVQFSWFVDDVEVHTAQTQPREEQFNSTFRSVSELPIMHQDWLNGKEFKCRVNSAAFPAPIEKTISKTKGRPKAPQVYTIPPPKEQMAKDKVSLTCMITDFFPEDITVEWQWNGQPAENYKNTQPIMDTDGSYFVYSKLNVQKSNWEAGNTFTCSVLHEGLHNHHTEKSLSHSPGK
VL: EIVMTQSPATLSVSPGERVTMSCKSSQSLLHSRSRKNYLAWYQQKPGQAPRLLIYWASTRESGVPARFSGSGSGTEFTLTISSVQSEDFAVYYCKQSYNLLSFGQGTVLEIKR

Kd [6]: 6.7 nM
Kd [7]: 6.05 nM
B2: HuF12 scFv displayed on yeast (scFv, V domains shown)
VH: QIQLVQSGAEVKKPGASVKISCKASGYTFTKYSMHWVRQAPGQGLEWVARINTETGEPTFADDFRGRFTVTLDTSTSTAYLEIRSLRSDDTAVYFCAIFYYGRDTWGQGTTLTVSS
VL: B1 VL
notes: scFv in vector pYD4 on yeast; also called HuC6D4F12 scFV

Kd [6]: 3.8 nM
Kd [7]: 3.76 nM
B3: H4C8 scFv displayed on yeast (scFv, V domains shown)
VH: QVQLVQSGAEVKKPGASVKVSCKVSGYTLTRQSMHWVRQAPGKGLEWMGRINTETGEPTYAQKFQGRVTMTQDTSTDTAYMELSSLRSEDTAVYFCAIFYYGRDTWGQGTTVTVSS
VL: B1 VL with M21L, K24R, S62T, V84L, V108K, L109V
notes: scFv in pYD4 on yeast

Kd [8]: 56 nM
EC50 of the inhibition of αvβ8-mediated TGF-β activation (TMLC GARP/TGF-β luciferase reporter cells on αvβ8-coated wells) [9]: 274 µg/mL
Kd [10]: 20 nM
B4: ADWA11 2.4 antibody (from US2020/0079855 A1) (antibody, V domains shown)
VH: EVQLVESGGGLVQPGGSLRLSCAASGFNIKDYYMNWVRQAPGKGLEWVGWIDPDQGNTIYEPKFQGRFTISADTSKNSAYLQMNSLRAEDTAVYYCARRLLMDYWGQGTLVTVSS
VL: DIQMTQSPSSLSASVGDRVTITCRSTKSLSHFNGNTYLFWYQQKPGKAPKRLIYYMSSLASGVPSRFSGSGSGTDFTLTISSLQPEDFATYYCQQSLEYPFTFGGGTKVEIKR
